Test results from US20200317768A1 (published 2020).

T1: human FcγRIIaR extracellular domain with C-terminal His-tag (human, UniProt P12318 34-217)
T1 construct: Expressed in FreeStyle 293 cells and purified; also called human FcγRIIa (type R); FcgRIIaR; not shown: C-terminal His-tag
T1 chain: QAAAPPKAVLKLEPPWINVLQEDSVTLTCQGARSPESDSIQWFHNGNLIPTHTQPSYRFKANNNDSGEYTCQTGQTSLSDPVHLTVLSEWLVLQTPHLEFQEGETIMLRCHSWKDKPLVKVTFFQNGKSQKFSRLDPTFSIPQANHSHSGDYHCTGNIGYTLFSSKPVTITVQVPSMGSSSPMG

T2: cynomolgus monkey FcγRIIIaS extracellular domain with C-terminal His-tag (cynomolgus monkey, UniProt Q8SPW2 21-206 at identity 1.00))
T2 construct: Expressed in FreeStyle 293 cells and purified; also called cyno FcγRIIIaS; cynoFcγRIIIaS; not shown: C-terminal His-tag
T2 chain: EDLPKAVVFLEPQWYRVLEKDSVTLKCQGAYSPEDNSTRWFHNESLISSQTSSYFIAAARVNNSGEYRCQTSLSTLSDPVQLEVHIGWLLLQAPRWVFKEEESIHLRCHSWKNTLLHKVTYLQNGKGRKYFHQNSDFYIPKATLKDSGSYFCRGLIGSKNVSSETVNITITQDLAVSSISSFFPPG

T3: cynomolgus monkey FcγRIIb extracellular domain with C-terminal His-tag (cynomolgus monkey)
T3 construct: Expressed in FreeStyle 293 cells and purified; also called cyno FcγRIIb; cynoFcγRIIb; not shown: C-terminal His-tag
T3 chain: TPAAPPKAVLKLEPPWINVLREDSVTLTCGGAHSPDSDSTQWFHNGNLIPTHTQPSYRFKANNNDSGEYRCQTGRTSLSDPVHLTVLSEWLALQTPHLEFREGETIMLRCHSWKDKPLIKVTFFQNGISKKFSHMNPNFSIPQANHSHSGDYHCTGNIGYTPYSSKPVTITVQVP

T4: human FcγRIIaH extracellular domain with C-terminal His-tag (human, UniProt P12318 34-217)
T4 construct: Expressed in FreeStyle 293 cells and purified; also called human FcγRIIa (type H); FcgRIIaH; not shown: C-terminal His-tag
T4 sequence: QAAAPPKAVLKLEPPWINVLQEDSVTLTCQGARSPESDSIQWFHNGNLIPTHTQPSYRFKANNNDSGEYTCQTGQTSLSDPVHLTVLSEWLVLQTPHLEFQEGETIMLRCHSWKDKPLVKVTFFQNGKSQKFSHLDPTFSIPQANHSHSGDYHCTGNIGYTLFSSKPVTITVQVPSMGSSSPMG

T5: cynomolgus monkey FcγRIIa2 extracellular domain with C-terminal His-tag (cynomolgus monkey)
T5 construct: Expressed in FreeStyle 293 cells and purified; also called cyno FcγRIIa2; cynoFcgRIIa2; not shown: C-terminal His-tag
T5 chain: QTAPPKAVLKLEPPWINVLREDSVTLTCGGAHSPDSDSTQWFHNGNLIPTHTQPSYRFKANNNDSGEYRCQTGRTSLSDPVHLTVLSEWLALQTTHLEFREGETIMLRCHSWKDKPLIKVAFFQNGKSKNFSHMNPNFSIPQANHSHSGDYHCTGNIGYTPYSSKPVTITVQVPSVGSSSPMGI

T6: cynomolgus monkey FcγRIIa1 extracellular domain with C-terminal His-tag (cynomolgus monkey)
T6 construct: Expressed in FreeStyle 293 cells and purified; also called cyno FcγRIIa1; cynoFcgRIIa1; not shown: C-terminal His-tag
T6 chain: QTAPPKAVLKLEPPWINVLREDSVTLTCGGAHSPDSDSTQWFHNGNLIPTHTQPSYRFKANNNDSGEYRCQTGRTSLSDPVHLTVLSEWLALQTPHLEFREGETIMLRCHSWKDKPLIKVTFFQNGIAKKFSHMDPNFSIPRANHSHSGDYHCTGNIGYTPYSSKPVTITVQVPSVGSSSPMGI

B1: M103205H795-MY169 / M103202L889-SK1 (antibody, human IgG1, kappa)
heavy: QVTLKESGPVLVKPTETLTLTCTVSGIDLSHDDISWVRQAPGKGLEWVGIISYAGSTYYASWAKGRLTISKDTSKNQVVLTMTNMDPVDTATYYCARGVPAYSHGGDLWGQGTLVTVSSASTKGPSVFPLAPSSKSTSGGTAALGCLVKDYFPEPVTVSWNSGALTSGVHTFPAVLQSSGLYSLSSVVTVPSSSLGTQTYICNVNHKPSNTKVDKKVEPKSCDKTHTCPPCPAPELLNGPSVFLFPPKPKDTLMISRTPEVTCVVVDVSEEDPEVKFNWYVDGVEVHNAKTKPREEQYNSTYRVVSVLTVLHQDWLNGKEYKCKVSNKALPAPIEKTISKAKGQPREPQVYTLPPSREEMTKNQVSLTCLVKGFYPSDIAVEWESNGQPENNYKTTPDVLDSDGSFFLYSKLTVDKSRWQQGNVFSCSVMHEALHNHYTQKSLSLSP
light: DIVMTQSPATLSLSPGERATLSCTSSQSVYHANWLSWFQQKPGQPPKLLIYWASTLAYGVPSRFSGSGSGTDFTLTISSLQPEDAATYYCAGGYGGGRYAFGQGTKVEIKRTVAAPSVFIFPPSDEQLKSGTASVVCLLNNFYPREAKVQWKVDNALQSGNSQESVTEQDSKDSTYSLSSTLTLSKADYEKHKVYACEVTHQGLSSPVTKSFNRGEC
notes: Position 396 variant derived from MY052, expressed with M103202L889-SK1 as light chain
B2: M103205H795-MY171 / M103202L889-SK1 (antibody, human IgG1, kappa)
heavy: QVTLKESGPVLVKPTETLTLTCTVSGIDLSHDDISWVRQAPGKGLEWVGIISYAGSTYYASWAKGRLTISKDTSKNQVVLTMTNMDPVDTATYYCARGVPAYSHGGDLWGQGTLVTVSSASTKGPSVFPLAPSSKSTSGGTAALGCLVKDYFPEPVTVSWNSGALTSGVHTFPAVLQSSGLYSLSSVVTVPSSSLGTQTYICNVNHKPSNTKVDKKVEPKSCDKTHTCPPCPAPELLNGPSVFLFPPKPKDTLMISRTPEVTCVVVDVSEEDPEVKFNWYVDGVEVHNAKTKPREEQYNSTYRVVSVLTVLHQDWLNGKEYKCKVSNKALPAPIEKTISKAKGQPREPQVYTLPPSREEMTKNQVSLTCLVKGFYPSDIAVEWESNGQPENNYKTTPFVLDSDGSFFLYSKLTVDKSRWQQGNVFSCSVMHEALHNHYTQKSLSLSP
light: DIVMTQSPATLSLSPGERATLSCTSSQSVYHANWLSWFQQKPGQPPKLLIYWASTLAYGVPSRFSGSGSGTDFTLTISSLQPEDAATYYCAGGYGGGRYAFGQGTKVEIKRTVAAPSVFIFPPSDEQLKSGTASVVCLLNNFYPREAKVQWKVDNALQSGNSQESVTEQDSKDSTYSLSSTLTLSKADYEKHKVYACEVTHQGLSSPVTKSFNRGEC
notes: as for B1
B3: M103205H795-MY170 / M103202L889-SK1 (antibody, human IgG1, kappa)
heavy: QVTLKESGPVLVKPTETLTLTCTVSGIDLSHDDISWVRQAPGKGLEWVGIISYAGSTYYASWAKGRLTISKDTSKNQVVLTMTNMDPVDTATYYCARGVPAYSHGGDLWGQGTLVTVSSASTKGPSVFPLAPSSKSTSGGTAALGCLVKDYFPEPVTVSWNSGALTSGVHTFPAVLQSSGLYSLSSVVTVPSSSLGTQTYICNVNHKPSNTKVDKKVEPKSCDKTHTCPPCPAPELLNGPSVFLFPPKPKDTLMISRTPEVTCVVVDVSEEDPEVKFNWYVDGVEVHNAKTKPREEQYNSTYRVVSVLTVLHQDWLNGKEYKCKVSNKALPAPIEKTISKAKGQPREPQVYTLPPSREEMTKNQVSLTCLVKGFYPSDIAVEWESNGQPENNYKTTPEVLDSDGSFFLYSKLTVDKSRWQQGNVFSCSVMHEALHNHYTQKSLSLSP
light: DIVMTQSPATLSLSPGERATLSCTSSQSVYHANWLSWFQQKPGQPPKLLIYWASTLAYGVPSRFSGSGSGTDFTLTISSLQPEDAATYYCAGGYGGGRYAFGQGTKVEIKRTVAAPSVFIFPPSDEQLKSGTASVVCLLNNFYPREAKVQWKVDNALQSGNSQESVTEQDSKDSTYSLSSTLTLSKADYEKHKVYACEVTHQGLSSPVTKSFNRGEC
notes: as for B1

Assays:
Assay in all cases: SPR (Biacore), antibody captured on chip, FcgR extracellular domain as analyte, 25 C
[1] = molecular target: T1, human FcγRIIaR extracellular domain …
Description: (§1) The kinetic analysis of interactions between these antibodies and FcγR was carried out using BIACORE® T200 or BIACORE® 4000 (GE Healthcare). HBS-EP+ (GE Healthcare) was used as the running buffer, and the measurement temperature was set to 25° C. A chip produced by immobilizing Protein A. Protein A/G or mouse anti-human IgG kappa light chain (BD Biosciences) onto a Series S Sensor Chip CM4 or CM5 (GE Healthcare) by the amine-coupling method was used. […] After the measurement, the antibody captured on the chip was washed off by allowing reaction with 10 mM glycine-HCl, pH1.5 and 25 mM NaOH so that the chip was regenerated and used repeatedly. The sensorgrams obtained as measurement results were analyzed by the 1:1 Langmuir binding model using the BIACORE® Evaluation Software to calculate the binding rate constant ka (L/mol/s) and dissociation rate constant kd (l/s), and the dissociation constant KD (mol/L) was calculated from these values. […] Regarding such interactions, KD values were calculated using the following 1:1 binding model described in BIACORE® T100 Software Handbook BR1006-48 Edition AE.
(§2) The resultant variants were expressed using M103202L889-SK1 as light chain and their affinity to human and cynoFcγRs were evaluated (Table 20).

[2] = molecular target: T2, cynomolgus monkey FcγRIIIaS …
Description: as §1, §2

[3] = molecular target: T3, cynomolgus monkey FcγRIIb extracellular …
Description: as §1, §2

[4] = molecular target: T4, human FcγRIIaH extracellular domain …
Description: as §1, §2

[5] = molecular target: T5, cynomolgus monkey FcγRIIa2 …
Description: as §1, §2

[6] = molecular target: T6, cynomolgus monkey FcγRIIa1 …
Description: as §1, §2

Binder | Kd [1] | Kd [2] | Kd [3] | Kd [4] | Kd [5] | Kd [6]
B1 | 2500 nM | 3500 nM | 1000 nM | 1200 nM | 2300 nM | 2300 nM
B2 | 2100 nM | 3500 nM | 980 nM | 1200 nM | 23000 nM | 2300 nM
B3 | 2500 nM | 2900 nM | 1200 nM | 1700 nM | 2400 nM | 2300 nM
